B1: NEC_S_31 (VHH)
VHH: EVQLLESGGGLVQPGGSLRLSCAASGFTYSSYAMGWYRQAPGKERELVSSISGSGGSTRYADSVKGRFTISRDNSKNTLYLQMNSLKPEDTAVYYCAVAIGVGDYWGQGTQVTVSS
B2: NEC_M_17 (VHH)
VHH: EVQLLESGGGLVQPGGSLRLSCAASGFTYSGYAMGWYRQAPGKERELVSSISGSGTLTSYADSVKGRFTISRDNSKNTLYLQMNSLKPEDTAVYYCDVDIPVGDATTVGDYWGQGTQVTVSS
B3: NEC_M_8 (VHH)
VHH: EVQLLESGGGLVQPGGSLRLSCAASGFTFSSYAMGWYRQAPGKEREFVSSISGSGGLTRYADSVKGRFTISRDNSKNTLYLQMNSLKPEDTAVYYCAVTTGYQGGVYDYWGQGTQVTVSS
B4: NEC_M_44 (VHH)
VHH: EVQLLESGGGLVQPGGSLRLSCAASGRTLSSYAMGWYRQAPGKERELVSSISGSGGSTRYADSVKGRFTISRDNSKNTLYLQMNSLKPEDTAVYYCAVYILELAPGAEYWGQGTQVTVSS
B5: NEC_S_55 (VHH)
VHH: EVQLLESGGGLVQPGGSLRLSCAASGFTLSSYAMGWYRQAPGKERELVSSISGSGGSTRYADSVKGRFTISRDNSKNTLYLQMNSLKPEDTAVYYCAAYIGGDYLGQGTQVTVSS
B6: NEC_M_46 (VHH)
VHH: EVQLLESGGGLVQPGGSLRLSCAASGYTFSDYAMGWYRQAPGKERELVSSISGSGGSTRYADSVKGRFTISRDNSKNTLYLQMNSLKPEDTAVYYCAAVIRQPSTGFYEYWGQGTQVTVSS
B7: NEC_S_11 (VHH)
VHH: EVQLLESGGGLVQPGGSLRLSCAASGLTSSGYAMGWYRQAPGKERELVSSISSSGGLTHYADSVKGRFTISRDNSKNTLYLQMNSLKPEDTAVYYCDADIAYTGADYWGQGTQVTVSS
B8: NEC_M_5 (VHH)
VHH: EVQLLESGGGLVQPGGSLRLSCAASGLSFSSYSMGWYRQAPGKEREFVSAISGSSGSTNYADSVKGRFTISRDNSKNTLYLQMNSLKPEDTAVYYCAAEHRVTTSGVFYDYWGQGTQVTVSS

Target: huNec4

Kd [nM]	Binder
84	B1
10	B2
122	B3
33	B4
81	B5
19	B6
302	B7
28	B8

Target: msNec4

Kd [nM]	Binder
10	B1
11	B2
47	B3
27	B4
28	B5
14	B6
38	B7
8060	B8

Source: patent US20260199463A1 (published 2026)
